Assay results published in US20240270846A1 (published 2024).
Where a chain is given by its changes, count along the chain named. In names and notes the source's numbering stands.

B1: CE115HA000 I51E one-arm antibody (antibody, human IgG1, kappa, L234A L235A, N297A, name in Kabat numbering)
heavy: QVQLVESGGGVVQPGRSLRLSCAASGFTFSNAWMHWVRQAPGKGLEWVAQEKAKSNNYATYYAESVKGRFTISRDDSKNSLYLQMNSLKTEDTAVYYCRYVHYGAYYGVDAWGQGTTVTVSSASTKGPSVFPLAPSSKSTSGGTAALGCLVKDYFPEPVTVSWNSGALTSGVHTFPAVLQSSGLYSLSSVVTVPSSSLGTQTYICNVNHKPSNTKVDKKVEPKSCDKTHTCPPCPAPEAAGGPSVFLFPPKPKDTLMISRTPEVTCVVVDVSHEDPEVKFNWYVDGVEVHNAKTKPREEQYASTYRVVSVLTVLHQDWLNGKEYKCKVSNKALPAPIEKTISKAKGQPREPQVYTLPPSRCELTKNQVSLSCAVKGFYPSDIAVEWESNGQPENNYKTTPPVLDSDGSFFLVSKLTVDKSRWQQGNVFSCSVMHEALHNHYTQKSLSLSPDYKDDDDK
chain: EPKSSDKTHTCPPCPAPELLGGPSVFLFPPKPKDTLMISRTPEVTCVVVDVSHEDPEVKFNWYVDGVEVHNAKTKPREEQYNSTYRVVSVLTVLHQDWLNGKEYKCKVSNKALPAPIEKTISKAKGQPREPQVCTLPPSRDELTKNQVSLWCLVKGFYPSDIAVEWESNGQPENNYKTTPPVLDSDGSFFLYSKLTVDKSRWQQGNVFSCSVMHEALHNRYTQKSLSLSP
light: DIVMTQSPLSLPVTPGEPASISCRSSQSLVHSNRNTYLHWYQQKPGQAPRLLIYKVSNRFSGVPDRFSGSGSGTDFTLKISRVEAEDVGVYYCGQGTQVPYTFGQGTKLEIKRTVAAPSVFIFPPSDEQLKSGTASVVCLLNNFYPREAKVQWKVDNALQSGNSQESVTEQDSKDSTYSLSSTLTLSKADYEKHKVYACEVTHQGLSSPVTKSFNRGEC
notes: one-arm antibody
B2: CE115HA000 K43E one-arm antibody (antibody, human IgG1, kappa, L234A L235A, N297A, name in Kabat numbering)
heavy: B1 heavy with K43E, E51I
chain: B1 chain
light: B1 light
notes: one-arm antibody
B3: CE115HA000 K43Q one-arm antibody (antibody, human IgG1, kappa, L234A L235A, N297A, name in Kabat numbering)
heavy: B1 heavy with K43Q, E51I
chain: B1 chain
light: B1 light
notes: one-arm antibody
B4: CE115HA000 K52D one-arm antibody (antibody, human IgG1, kappa, L234A L235A, N297A, name in Kabat numbering)
heavy: B1 heavy with E51I, K52D
chain: B1 chain
light: B1 light
notes: one-arm antibody
B5: CE115HA000 K52E one-arm antibody (antibody, human IgG1, kappa, L234A L235A, N297A, name in Kabat numbering)
heavy: B1 heavy with E51I, K52E
chain: B1 chain
light: B1 light
notes: one-arm antibody
B6: CE115HA000 K52F one-arm antibody (antibody, human IgG1, kappa, L234A L235A, N297A, name in Kabat numbering)
heavy: B1 heavy with E51I, K52F
chain: B1 chain
light: B1 light
notes: one-arm antibody
B7: CE115HA000 K52H one-arm antibody (antibody, human IgG1, kappa, L234A L235A, N297A, name in Kabat numbering)
heavy: B1 heavy with E51I, K52H
chain: B1 chain
light: B1 light
notes: one-arm antibody
B8: CE115HA000 K52I one-arm antibody (antibody, human IgG1, kappa, L234A L235A, N297A, name in Kabat numbering)
heavy: B1 heavy with E51I, K52I
chain: B1 chain
light: B1 light
notes: one-arm antibody
B9: CE115HA000 K52N one-arm antibody (antibody, human IgG1, kappa, L234A L235A, N297A, name in Kabat numbering)
heavy: B1 heavy with E51I, K52N
chain: B1 chain
light: B1 light
notes: one-arm antibody
B10: CE115HA000 K52R one-arm antibody (antibody, human IgG1, kappa, L234A L235A, N297A, name in Kabat numbering)
heavy: B1 heavy with E51I, K52R
chain: B1 chain
light: B1 light
notes: one-arm antibody
B11: CE115HA000 K52S one-arm antibody (antibody, human IgG1, kappa, L234A L235A, N297A, name in Kabat numbering)
heavy: B1 heavy with E51I, K52S
chain: B1 chain
light: B1 light
notes: one-arm antibody
B12: CE115HA000 K52W one-arm antibody (antibody, human IgG1, kappa, L234A L235A, N297A, name in Kabat numbering)
heavy: B1 heavy with E51I, K52W
chain: B1 chain
light: B1 light
notes: one-arm antibody
B13: CE115HA000 K52Y one-arm antibody (antibody, human IgG1, kappa, L234A L235A, N297A, name in Kabat numbering)
heavy: B1 heavy with E51I, K52Y
chain: B1 chain
light: B1 light
notes: one-arm antibody
B14: CE115HA000 K52bA one-arm antibody (antibody, human IgG1, kappa, L234A L235A, N297A, name in Kabat numbering)
heavy: B1 heavy with E51I, K54A
chain: B1 chain
light: B1 light
notes: one-arm antibody
B15: CE115HA000 K52bD one-arm antibody (antibody, human IgG1, kappa, L234A L235A, N297A, name in Kabat numbering)
heavy: B1 heavy with E51I, K54D
chain: B1 chain
light: B1 light
notes: one-arm antibody
B16: CE115HA000 K52bL one-arm antibody (antibody, human IgG1, kappa, L234A L235A, N297A, name in Kabat numbering)
heavy: B1 heavy with E51I, K54L
chain: B1 chain
light: B1 light
notes: one-arm antibody
B17: CE115HA000 K52bN one-arm antibody (antibody, human IgG1, kappa, L234A L235A, N297A, name in Kabat numbering)
heavy: B1 heavy with E51I, K54N
chain: B1 chain
light: B1 light
notes: one-arm antibody
B18: CE115HA000 K52bQ one-arm antibody (antibody, human IgG1, kappa, L234A L235A, N297A, name in Kabat numbering)
heavy: B1 heavy with E51I, K54Q
chain: B1 chain
light: B1 light
notes: one-arm antibody
B19: CE115HA000 K52bR one-arm antibody (antibody, human IgG1, kappa, L234A L235A, N297A, name in Kabat numbering)
heavy: B1 heavy with E51I, K54R
chain: B1 chain
light: B1 light
notes: one-arm antibody
B20: CE115HA000 K52bS one-arm antibody (antibody, human IgG1, kappa, L234A L235A, N297A, name in Kabat numbering)
heavy: B1 heavy with E51I, K54S
chain: B1 chain
light: B1 light
notes: one-arm antibody
B21: CE115HA000 K52bY one-arm antibody (antibody, human IgG1, kappa, L234A L235A, N297A, name in Kabat numbering)
heavy: B1 heavy with E51I, K54Y
chain: B1 chain
light: B1 light
notes: one-arm antibody
B22: CE115HA000 K64A one-arm antibody (antibody, human IgG1, kappa, L234A L235A, N297A, name in Kabat numbering)
heavy: B1 heavy with E51I, K67A
chain: B1 chain
light: B1 light
notes: one-arm antibody
B23: CE115HA000 K64D one-arm antibody (antibody, human IgG1, kappa, L234A L235A, N297A, name in Kabat numbering)
heavy: B1 heavy with E51I, K67D
chain: B1 chain
light: B1 light
notes: one-arm antibody
B24: CE115HA000 K64E one-arm antibody (antibody, human IgG1, kappa, L234A L235A, N297A, name in Kabat numbering)
heavy: B1 heavy with E51I, K67E
chain: B1 chain
light: B1 light
notes: one-arm antibody
B25: CE115HA000 N31A one-arm antibody (antibody, human IgG1, kappa, L234A L235A, N297A, name in Kabat numbering)
heavy: B1 heavy with N31A, E51I
chain: B1 chain
light: B1 light
notes: one-arm antibody
B26: CE115HA000 N31D one-arm antibody (antibody, human IgG1, kappa, L234A L235A, N297A, name in Kabat numbering)
heavy: B1 heavy with N31D, E51I
chain: B1 chain
light: B1 light
notes: one-arm antibody
B27: CE115HA000 N31F one-arm antibody (antibody, human IgG1, kappa, L234A L235A, N297A, name in Kabat numbering)
heavy: B1 heavy with N31F, E51I
chain: B1 chain
light: B1 light
notes: one-arm antibody
B28: CE115HA000 N31G one-arm antibody (antibody, human IgG1, kappa, L234A L235A, N297A, name in Kabat numbering)
heavy: B1 heavy with N31G, E51I
chain: B1 chain
light: B1 light
notes: one-arm antibody
B29: CE115HA000 N31H one-arm antibody (antibody, human IgG1, kappa, L234A L235A, N297A, name in Kabat numbering)
heavy: B1 heavy with N31H, E51I
chain: B1 chain
light: B1 light
notes: one-arm antibody
B30: CE115HA000 N31I one-arm antibody (antibody, human IgG1, kappa, L234A L235A, N297A, name in Kabat numbering)
heavy: B1 heavy with N31I, E51I
chain: B1 chain
light: B1 light
notes: one-arm antibody
B31: CE115HA000 N31K one-arm antibody (antibody, human IgG1, kappa, L234A L235A, N297A, name in Kabat numbering)
heavy: B1 heavy with N31K, E51I
chain: B1 chain
light: B1 light
notes: one-arm antibody
B32: CE115HA000 N31Q one-arm antibody (antibody, human IgG1, kappa, L234A L235A, N297A, name in Kabat numbering)
heavy: B1 heavy with N31Q, E51I
chain: B1 chain
light: B1 light
notes: one-arm antibody
B33: CE115HA000 N31R one-arm antibody (antibody, human IgG1, kappa, L234A L235A, N297A, name in Kabat numbering)
heavy: B1 heavy with N31R, E51I
chain: B1 chain
light: B1 light
notes: one-arm antibody

Each binder was assayed against T1, CD3 epsilon homodimer protein (UniProt P07766 23-126) (assay: SPR Biacore T200, antibody over immobilised CD3e homodimer;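 further: CD3 epsilon homodimer amine-coupled on a CM4 chip, run at 25 °C in HBS-EP+, Z = bound amount of each single-residue H chain variant over that of the parent antibody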).
T1 construct: also called CD3 (CD3 epsilon)
T1 sequence (P07766 23-126): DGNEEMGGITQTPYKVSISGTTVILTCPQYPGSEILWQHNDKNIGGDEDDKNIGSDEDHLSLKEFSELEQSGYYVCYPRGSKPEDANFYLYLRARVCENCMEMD

Row | Binder | ratio of amounts bound (Z=Y/X vs CE115HA000)
1 | B1 | 0.55
2 | B2 | 0.9
3 | B3 | 0.99
4 | B4 | 0.25
5 | B5 | 0.26
6 | B6 | 0.17
7 | B7 | 0.22
8 | B8 | 0.33
9 | B9 | 0.34
10 | B10 | 0.91
11 | B11 | 0.28
12 | B12 | 0.22
13 | B13 | 0.18
14 | B14 | 0.67
15 | B15 | 0.27
16 | B16 | 0.61
17 | B17 | 0.27

Row | Binder | ratio of amounts bound (Z=Y/X vs CE115HA000)
18 | B18 | 0.6
19 | B19 | 1.11
20 | B20 | 0.68
21 | B21 | 0.74
22 | B22 | 0.82
23 | B23 | 0.72
24 | B24 | 0.74
25 | B25 | 0.5
26 | B26 | 0.37
27 | B27 | 0.62
28 | B28 | 0.39
29 | B29 | 0.68
30 | B30 | 0.81
31 | B31 | 1.01
32 | B32 | 0.49
33 | B33 | 1.14
